Values of other authors as cited in paper PMC11924945.
pKd: −log10 of the molar value.

Target: CD47 (Homo sapiens) (UniProt Q08722)
Sequence (Q08722 19-323): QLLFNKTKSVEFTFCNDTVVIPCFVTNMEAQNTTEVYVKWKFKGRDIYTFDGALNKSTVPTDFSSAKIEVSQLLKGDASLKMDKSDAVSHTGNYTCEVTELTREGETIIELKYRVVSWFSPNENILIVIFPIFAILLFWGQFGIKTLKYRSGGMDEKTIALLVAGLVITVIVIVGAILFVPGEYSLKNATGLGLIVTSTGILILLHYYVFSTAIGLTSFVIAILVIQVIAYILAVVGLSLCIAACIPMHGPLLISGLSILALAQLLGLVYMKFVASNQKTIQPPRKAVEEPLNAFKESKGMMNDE

Sequence of SIRPα allele 2 (P78324 31-373): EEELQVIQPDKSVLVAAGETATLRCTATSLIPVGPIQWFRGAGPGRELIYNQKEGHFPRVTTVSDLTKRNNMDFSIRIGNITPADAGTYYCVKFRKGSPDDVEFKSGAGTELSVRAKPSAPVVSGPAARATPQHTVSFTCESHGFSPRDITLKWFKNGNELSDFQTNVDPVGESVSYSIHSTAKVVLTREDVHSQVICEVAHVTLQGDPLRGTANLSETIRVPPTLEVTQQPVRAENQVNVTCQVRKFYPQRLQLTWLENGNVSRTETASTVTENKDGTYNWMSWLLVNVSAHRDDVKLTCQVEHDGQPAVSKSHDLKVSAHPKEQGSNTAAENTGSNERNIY

For SIRPα allele 2 (from UniProt P78324), the pKd is listed as 6.00.
